This test addresses T1, wild-type YoeB toxin, YoeB(His)6 (Escherichia coli, UniProt P69348).
T1 sequence: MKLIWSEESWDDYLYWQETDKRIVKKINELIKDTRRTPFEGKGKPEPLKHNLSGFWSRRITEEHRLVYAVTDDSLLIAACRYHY
The test can be described thus: pull-down.

B1: YefM antitoxin (natural protein)
chain: MRTISYSEARQNLSATMMKAVEDHAPILITRQNGEACVLMSLEEYNSLEETAYLLRSPANARRLMDSIDSLKSGKGTEKDIIE
As for B1, the binding result is listed as “binds”.

The record behind these values is paper PMC6821326 (Nucleic Acids Research, 2019).
